Laboratory results reported in patent US20250011363A1, “OPTIMIZED SHORTENED PEPTIDE THAT BINDS TO ACETYLCHOLINE RECEPTOR, AND USE THEREOF” (SKINMED CO., LTD., priority 2021, published 2025).

Biological target: acetylcholine receptor (Homo sapiens, UniProt P02708)
Experiment: SPR binding affinity (RU) of optimized 5mer/6mer/7mer peptides, Examples 6-7
Conditions: 6mer-1 Top sequence; SPR; peptides tested at 10 μM
Method: Based on the frequencies of occurrence of the top 7 amino acids from Table 7 in Example 5, 600 peptides comprising these amino acids (top combinations) and those comprising the 13 less frequently occurring amino acids (bottom combinations) were synthesized for each series of 5mer, 6mer-1, and 6mer-2. The binding affinity of each sequence for the acetylcholine receptor was measured using Surface Plasmon Resonance (SPR) analysis method. The peptides were tested at a concentration of 10 μM. Additionally, the average binding affinities of the top and bottom combinations in each series are depicted in FIGS. 5-7.
Representative peptides identified in Example 6, two in each library, including 5mers (73, 311) and 6mers-1 (43, 210) and 6mers-2 (136, 233), were compared with the pre-optimized 6mer, 5mer-ND, and Synake.

Sequence of acetylcholine receptor (P02708 21-457): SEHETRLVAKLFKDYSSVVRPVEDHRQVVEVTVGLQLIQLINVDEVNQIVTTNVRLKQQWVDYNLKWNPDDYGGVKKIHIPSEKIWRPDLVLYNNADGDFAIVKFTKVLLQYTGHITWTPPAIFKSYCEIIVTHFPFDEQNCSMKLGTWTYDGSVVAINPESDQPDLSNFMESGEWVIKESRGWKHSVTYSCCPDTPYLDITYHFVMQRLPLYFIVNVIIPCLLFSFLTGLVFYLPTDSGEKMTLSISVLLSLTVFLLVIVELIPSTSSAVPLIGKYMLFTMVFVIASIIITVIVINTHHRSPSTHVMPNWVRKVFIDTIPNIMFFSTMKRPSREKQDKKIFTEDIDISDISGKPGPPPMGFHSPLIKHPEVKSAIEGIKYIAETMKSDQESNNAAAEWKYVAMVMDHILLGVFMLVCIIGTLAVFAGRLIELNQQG

| Substance | Binding affinity [Ru] |
| --- | --- |
| 6mer-1-335 (RRSQRR) | 148 |
| 6mer-1-373 (KRGVLK) | 149 |
| 6mer-1-367 (RKGFSK) | 154 |
| 6mer-1-327 (KRGITR) | 139 |
| 6mer-1-246 (RRLVSR) | 122 |
| 6mer-1-211 (KKQLLR) | 123 |
| 6mer-1-288 (KKVQQR) | 148 |
| 6mer-1-395 (KKRQTK) | 125 |
| 6mer-1-299 (KRWLSK) | 139 |
| 6mer-1-394 (KKVRRR) | 149 |
| 6mer-1-348 (RKQRLK) | 142 |
| 6mer-1-334 (RRRRLR) | 154 |

Same assay, conditions: 6mer-2 Top sequence; SPR; peptides tested at 10 μM

| Substance | Binding affinity [Ru] |
| --- | --- |
| 6mer-2-200 (RGVQRK) | 121 |
| 6mer-2-52 (KRQRKK) | 136 |
| 6mer-2-93 (RWQTRR) | 133 |
| 6mer-2-16 (KGVCRR) | 121 |
| 6mer-2-50 (RSQSKR) | 125 |
| 6mer-2-51 (KQFLKK) | 139 |

Same assay, conditions: SPR, Resonance Units; 5mer Bottom sequence (bottom combinations); peptides tested at 10 μM

| Substance | Binding affinity [Ru] |
| --- | --- |
| 5mer-798 (RETMK) | 13 |
| 5mer-1038 (KCCKR) | 17 |
| 5mer-933 (RYMKK) | 27 |
| 5mer-903 (RHHKR) | 21 |
| 5mer-976 (RETNR) | 16 |
| 5mer-653 (KTTWK) | 16 |
| 5mer-994 (KAWVR) | 26 |
| 5mer-980 (RKPHR) | 33 |
| 5mer-696 (RCEHR) | 11 |
| 5mer-803 (RFSDR) | 11 |
| 5mer-1037 (KKSFR) | 28 |
| 5mer-1055 (KHHEK) | 15 |
| 5mer-651 (RFTVR) | 11 |
| 5mer-920 (KPKIK) | 15 |
| 5mer-1054 (RNKVR) | 21 |
| 5mer-984 (KNAHK) | 11 |
| 5mer-1111 (KAEHK) | 12 |
| 5mer-740 (RMMGK) | 21 |

Same assay, conditions: SPR, Resonance Units; peptides tested at 10 μM; 6mer-1 Bottom sequence

| Substance | Binding affinity [Ru] |
| --- | --- |
| 6mer-1-1159 (RRAWPR) | 39 |
| 6mer-1-1028 (RRHCWR) | 36 |
| 6mer-1-1173 (KKIPMK) | 26 |
| 6mer-1-1142 (KKETPR) | 24 |
| 6mer-1-1160 (RRDWAK) | 29 |
| 6mer-1-1062 (RRICMR) | 27 |
| 6mer-1-1186 (KKNNAK) | 37 |
| 6mer-1-1045 (KKTPGR) | 27 |

Same assay, conditions: SPR, Resonance Units; peptides tested at 10 μM; 6mer-1 Bottom sequence (Table 11)

| Substance | Binding affinity [Ru] |
| --- | --- |
| 6mer-1-679 (KKAEER) | 30 |
| 6mer-1-753 (KKDTHK) | 12 |
| 6mer-1-693 (RKIDMK) | 22 |

Same assay, conditions: SPR, Resonance Units; peptides tested at 10 μM; 6mer-2 Bottom sequence

| Substance | Binding affinity [Ru] |
| --- | --- |
| 6mer-2-768 (KYMGRK) | 22 |
| 6mer-2-938 (RIEHKR) | 40 |
| 6mer-2-650 (RFKARK) | 18 |
| 6mer-2-811 (KAMKRK) | 16 |
| 6mer-2-836 (KNTMKR) | 26 |
| 6mer-2-639 (KHTVKK) | 23 |
| 6mer-2-876 (KEDNKR) | 17 |
| 6mer-2-864 (RKCAKK) | 12 |
| 6mer-2-744 (KDHPRK) | 19 |
| 6mer-2-734 (KHCHRR) | 17 |
| 6mer-2-885 (KCMVRR) | 17 |
| 6mer-2-646 (RAAPRR) | 32 |
| 6mer-2-933 (RYSMKR) | 34 |
| 6mer-2-919 (KAKHKR) | 27 |
| 6mer-2-870 (KMTEKK) | 21 |
| 6mer-2-833 (RKTWRR) | 14 |

Same assay, conditions: SPR, Resonance Units; peptides tested at 10 μM; 6mer-2 Top sequence

| Substance | Binding affinity [Ru] |
| --- | --- |
| 6mer-2-403 (KGVLRK) | 123 |
| 6mer-2-551 (KWYTKR) | 141 |
| 6mer-2-407 (KQVSKR) | 122 |
| 6mer-2-574 (KGVYRK) | 153 |
| 6mer-2-509 (RGFYRK) | 136 |
| 6mer-2-451 (RGRCKK) | 148 |
| 6mer-2-528 (KGFRKK) | 151 |
| 6mer-2-521 (KQYTRK) | 144 |
| 6mer-2-573 (KLYLRR) | 121 |
| 6mer-2-570 (RVYYKR) | 148 |
| 6mer-2-588 (KWFYKK) | 149 |

Same assay, conditions: SPR, Resonance Units; peptides tested at 10 μM; 6mer-2 Top sequence (Table 12)

| Substance | Binding affinity [Ru] |
| --- | --- |
| 6mer-2-237 (RLVYKR) | 123 |
| 6mer-2-343 (KQISKK) | 146 |
| 6mer-2-247 (KGYQKK) | 146 |
| 6mer-2-340 (RRLTRR) | 122 |
| 6mer-2-395 (KWRYRR) | 148 |
| 6mer-2-382 (KSVSRR) | 148 |
| 6mer-2-359 (RLFCKK) | 136 |
| 6mer-2-367 (RWRSRR) | 142 |
| 6mer-2-234 (RSQTKR) | 142 |

Same assay, conditions: SPR, peptides at 10 μM; 6mer-2 Bottom sequence

| Substance | Binding affinity [Ru] |
| --- | --- |
| 6mer-2-1011 (RAEFRR) | 22 |
| 6mer-2-1088 (RPCEKK) | 39 |
| 6mer-2-1158 (RDNIRK) | 37 |
| 6mer-2-1003 (KPEWKR) | 42 |
| 6mer-2-1127 (KAAEKK) | 42 |
| 6mer-2-1186 (KEKFRR) | 27 |

Same assay, conditions: SPR, peptides tested at 10 μM; 5mer Top sequence

| Substance | Binding affinity [Ru] |
| --- | --- |
| 5mer-442 (KVRLR) | 61 |
| 5mer-34 (KRIRK) | 82 |
| 5mer-491 (KQIRR) | 81 |
| 5mer-488 (KVRSR) | 58 |
| 5mer-117 (RSVYK) | 69 |
| 5mer-59 (KLQYR) | 68 |
| 5mer-184 (KLQCR) | 68 |
| 5mer-490 (RWLLK) | 60 |
| 5mer-135 (RRLLR) | 64 |
| 5mer-430 (KWRTK) | 80 |
| 5mer-322 (RRQSR) | 84 |
| 5mer-104 (RVVLK) | 74 |
| 5mer-477 (KGYSR) | 58 |
| 5mer-191 (RVRCR) | 75 |
| 5mer-3 (KRVLK) | 66 |
| 5mer-67 (RQLYR) | 86 |
| 5mer-340 (KGYRR) | 51 |

Same assay, conditions: SPR, peptides tested at 10 μM; 5mer Top sequence (top combinations)

| Substance | Binding affinity [Ru] |
| --- | --- |
| 5mer-228 (KRFLK) | 53 |
| 5mer-265 (RWQCR) | 77 |
| 5mer-236 (KRRCK) | 81 |
| 5mer-589 (KGLCR) | 58 |
| 5mer-297 (RSLRK) | 81 |
| 5mer-240 (KWRYR) | 51 |
| 5mer-559 (KQQLK) | 81 |

Same assay, conditions: SPR, peptides tested at 10 μM; 6mer-1 Bottom sequence (Table 11)

| Substance | Binding affinity [Ru] |
| --- | --- |
| 6mer-1-822 (KREPIK) | 17 |
| 6mer-1-922 (RRDWGR) | 34 |
| 6mer-1-933 (RRPWNR) | 28 |
| 6mer-1-912 (KKETFR) | 33 |
| 6mer-1-927 (KRESHR) | 37 |
| 6mer-1-821 (RRTTNR) | 22 |

Same assay, conditions: SPR, peptides tested at 10 μM; 6mer-1 Top sequence

| Substance | Binding affinity [Ru] |
| --- | --- |
| 6mer-1-500 (RKLQSK) | 151 |
| 6mer-1-513 (RKQIRR) | 154 |
| 6mer-1-578 (RKGQYK) | 139 |
| 6mer-1-448 (RKRFSR) | 141 |
| 6mer-1-406 (RKVLLR) | 153 |
| 6mer-1-482 (RKQVRK) | 133 |
| 6mer-1-523 (KRRRSK) | 139 |
| 6mer-1-509 (RKWLRK) | 128 |
| 6mer-1-512 (RKWICK) | 154 |
| 6mer-1-582 (KRWFLK) | 137 |
| 6mer-1-421 (RKVLYR) | 135 |

Same assay, conditions: SPR, peptides tested at 10 μM; 6mer-1 Top sequence (top combinations)

| Substance | Binding affinity [Ru] |
| --- | --- |
| 6mer-1-141 (RKLYQK) | 141 |
| 6mer-1-119 (KRLQTR) | 133 |
| 6mer-1-185 (KRQLRK) | 153 |
| 6mer-1-142 (KKVYYK) | 123 |

Same assay, conditions: SPR; XRRGVRR-7mer and RRGVRRX-7mer

| Substance | Binding affinity, values relative to the RRGVRR sequence |
| --- | --- |
| 3647 (IRRGVRR) [compound 3647] | 126 |
| 3680 (RRGVRRE) [compound 3680] | 33 |
| 3650 (FRRGVRR) [compound 3650] | 139 |

Same assay, conditions: SPR; XRRQRR-6mer and RRQRRX-6mer

| Substance | Binding affinity, relative value to the RRQRR sequence |
| --- | --- |
| 3604 (CRRQRR) [compound 3604] | 123 |
| 3630 (RRQRRF) [compound 3630] | 132 |

Same assay, conditions: SPR; peptides tested at 10 μM; 5mer Bottom sequence

| Substance | Binding affinity [Ru] |
| --- | --- |
| 5mer-1145 (RMPAK) | 25 |
| 5mer-846 (RPDWR) | 32 |
| 5mer-1144 (KAKNR) | 33 |
| 5mer-827 (KKAGR) | 18 |
| 5mer-1151 (KTNAR) | 26 |
